Reference: patent US20170362301A1 (Janssen / Centocor, published 2017)

Tests used:
[1] = biological target: T1, EGFR (form in the assay not stated) (human, UniProt P00533 25-645, limits assumed); experiment: ELISA, NEM conjugate 10 nM
[2] = biological target: T1, EGFR (form in the assay not stated); experiment: ELISA, NEM conjugate 100 nM
[3] = biological target: T1, EGFR (form in the assay not stated); experiment: ELISA, NEM conjugate 500 nM

| Binder | binding ratio vs parent P54AR4-83v2 [1] | binding ratio vs parent P54AR4-83v2 [2] | binding ratio vs parent P54AR4-83v2 [3] |
| --- | --- | --- | --- |
| P54AR4-83v2 A3C, NEM conjugate (designed binder, NEM on Cys 3, His-tagged) LPCPKNLVVSEVTEDSARLSWDDPWAFYESFLIQYQESEKVGEAIVLTVPGSERSYDLTGLKPGTEYTVSIYGVHNVYKDTNMRGLPLSAIFTT | 0.34 ratio | 0.88 ratio | 0.82 ratio |
| P54AR4-83v2 D23C, NEM conjugate (designed binder, NEM on Cys 23, His-tagged) LPAPKNLVVSEVTEDSARLSWDCPWAFYESFLIQYQESEKVGEAIVLTVPGSERSYDLTGLKPGTEYTVSIYGVHNVYKDTNMRGLPLSAIFTT | 0.02 ratio | 0.2 ratio | 0.4 ratio |
| P54AR4-83v2 E43C, NEM conjugate (designed binder, NEM on Cys 43, His-tagged) LPAPKNLVVSEVTEDSARLSWDDPWAFYESFLIQYQESEKVGCAIVLTVPGSERSYDLTGLKPGTEYTVSIYGVHNVYKDTNMRGLPLSAIFTT | 0.68 ratio | 1.04 ratio | 0.92 ratio |
| P54AR4-83v2 E11C, NEM conjugate (designed binder, NEM on Cys 11, His-tagged) LPAPKNLVVSCVTEDSARLSWDDPWAFYESFLIQYQESEKVGEAIVLTVPGSERSYDLTGLKPGTEYTVSIYGVHNVYKDTNMRGLPLSAIFTT | 0.9 ratio | 1.08 ratio | 0.95 ratio |
| P54AR4-83v2 A26C, NEM conjugate (designed binder, NEM on Cys 26, His-tagged) LPAPKNLVVSEVTEDSARLSWDDPWCFYESFLIQYQESEKVGEAIVLTVPGSERSYDLTGLKPGTEYTVSIYGVHNVYKDTNMRGLPLSAIFTT | 0.95 ratio | 1.06 ratio | 0.95 ratio |
| P54AR4-83v2 E39C, NEM conjugate (designed binder, NEM on Cys 39, His-tagged) LPAPKNLVVSEVTEDSARLSWDDPWAFYESFLIQYQESCKVGEAIVLTVPGSERSYDLTGLKPGTEYTVSIYGVHNVYKDTNMRGLPLSAIFTT | 0.9 ratio | 1 ratio | 0.9 ratio |
| P54AR4-83v2 D22C, NEM conjugate (designed binder, NEM on Cys 22, His-tagged) LPAPKNLVVSEVTEDSARLSWCDPWAFYESFLIQYQESEKVGEAIVLTVPGSERSYDLTGLKPGTEYTVSIYGVHNVYKDTNMRGLPLSAIFTT | 0.84 ratio | 1.02 ratio | 0.9 ratio |
| P54AR4-83v2 D80C, NEM conjugate (designed binder, NEM on Cys 80, His-tagged) LPAPKNLVVSEVTEDSARLSWDDPWAFYESFLIQYQESEKVGEAIVLTVPGSERSYDLTGLKPGTEYTVSIYGVHNVYKCTNMRGLPLSAIFTT | 0.7 ratio | 0.97 ratio | 0.91 ratio |
| P54AR4-83v2 D15C, NEM conjugate (designed binder, NEM on Cys 15, His-tagged) LPAPKNLVVSEVTECSARLSWDDPWAFYESFLIQYQESEKVGEAIVLTVPGSERSYDLTGLKPGTEYTVSIYGVHNVYKDTNMRGLPLSAIFTT | 0.98 ratio | 1.09 ratio | 0.97 ratio |
| P54AR4-83v2 E14C, NEM conjugate (designed binder, NEM on Cys 14, His-tagged) LPAPKNLVVSEVTCDSARLSWDDPWAFYESFLIQYQESEKVGEAIVLTVPGSERSYDLTGLKPGTEYTVSIYGVHNVYKDTNMRGLPLSAIFTT | 1.11 ratio | 1.27 ratio | 1.15 ratio |
| P54AR4-83v2 E29C, NEM conjugate (designed binder, NEM on Cys 29, His-tagged) LPAPKNLVVSEVTEDSARLSWDDPWAFYCSFLIQYQESEKVGEAIVLTVPGSERSYDLTGLKPGTEYTVSIYGVHNVYKDTNMRGLPLSAIFTT | 0.89 ratio | 1.07 ratio | 0.93 ratio |
| P54AR4-83v2 A90C, NEM conjugate (designed binder, NEM on Cys 90, His-tagged) LPAPKNLVVSEVTEDSARLSWDDPWAFYESFLIQYQESEKVGEAIVLTVPGSERSYDLTGLKPGTEYTVSIYGVHNVYKDTNMRGLPLSCIFTT | 0.94 ratio | 1.05 ratio | 1.01 ratio |
